In general, Kd refers to the constant that tells how readily two partners part at equilibrium.

For assay [1], the target named is Osj10gBTF3 (recombinant, Expi293) (rice). Kind of assay: MST; Monolith NT.115; 100 nM target protein labelled with His-Tag Labeling Kit RED-tris-NTA 2nd generation, serial dilutions of unlabelled ligand; PBS with 0.05% Tween 20; 35% MST power, 60% LED power, 24°C.
In assay [2] the target is OsPPR676 (recombinant, Expi293) (rice). The description is as above.

With “OsCpn60 (recombinant, Expi293) (natural protein)”, the Kd in assay [1] was 9.8 µM; in assay [2], 15.1 µM. Consider “OsPPR676 (recombinant, Expi293) (natural protein)”, for which the Kd in assay [1] came to 24.3 µM.

Source of the values: paper PMC8377413.
